Measurements: patent US20250388664A1 (BIOARCTIC, published 2025)
Where a chain is given by its changes, count along the chain named. Numbers in names are those of the source.

T1: truncated cTfR1 of SEQ ID NO:123 (cynomolgus monkey, UniProt Q5RDH6 122-760 (Pongo abelii entry))
T1 construct: also called cynomolgus TfR1
T1 chain: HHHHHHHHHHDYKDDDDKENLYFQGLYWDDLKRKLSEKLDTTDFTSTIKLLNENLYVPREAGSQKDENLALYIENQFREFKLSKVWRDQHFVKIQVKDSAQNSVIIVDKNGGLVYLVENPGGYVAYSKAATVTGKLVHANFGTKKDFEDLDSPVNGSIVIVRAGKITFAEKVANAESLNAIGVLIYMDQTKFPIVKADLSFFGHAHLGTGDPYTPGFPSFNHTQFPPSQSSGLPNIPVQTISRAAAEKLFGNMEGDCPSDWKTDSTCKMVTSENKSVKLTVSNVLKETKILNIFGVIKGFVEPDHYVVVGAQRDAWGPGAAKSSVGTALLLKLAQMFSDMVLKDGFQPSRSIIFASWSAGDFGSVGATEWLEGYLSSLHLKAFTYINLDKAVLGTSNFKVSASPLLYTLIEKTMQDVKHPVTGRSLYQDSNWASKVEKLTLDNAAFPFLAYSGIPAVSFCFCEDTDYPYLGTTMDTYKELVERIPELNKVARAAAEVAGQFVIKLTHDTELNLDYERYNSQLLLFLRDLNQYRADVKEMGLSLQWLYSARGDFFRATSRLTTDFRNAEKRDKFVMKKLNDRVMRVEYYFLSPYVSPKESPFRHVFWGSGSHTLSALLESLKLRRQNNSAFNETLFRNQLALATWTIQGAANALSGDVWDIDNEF

B1: BA007 (bispecific antibody, human IgG1, kappa)
light: EIVLTQSPLSLSVTLGQSASISCRSSQSLLDSNGKTYLHWFILRPGQSPRRLIYLVSILDSGVPDRFSGSGSGTDFTLKISRVEAEDVGVYYCVQGTHFPFTFGSGTKLEIKRTVAAPSVFIFPPSDEQLKSGTASVVCLLNNFYPREAKVQWKVDNALQSGNSQESVTEQDSKDSTYSLSSTLTLSKADYEKHKVYACEVTHQGLSSPVTKSFNRGEC
heavy 1: not shown
heavy 2: EVQLVQSGAEVVKPGASVRLSCKASGYSFTGFTMNWVRQALGQGLEWMGLINPYNGVTTYNQKFKGRLTMTRDMSTRTVYMDLSSLTYEDTAVYYCTREGNWEGVYWGQGTLVTVSSASTKGPSVFPLAPSSKSTSGGTAALGCLVKDYFPEPVTVSWNSGALTSGVHTFPAVLQSSGLYSLSSVVTVPSSSLGTQTYICNVNHKPSNTKVDKKVEPKSCDKTHTCPPCPAPELLGGPSVFLFPPKPKDTLMISRTPEVTCVVVDVSHEDPEVKFNWYVDGVEVHNAKTKPREEQYNSTYRVVSVLTVLHQDWLNGKEYKCAVSNKALPAPIEKTISKAKGQPREPQVYTLPPCRDELTKNQVSLWCLVKGFYPSDIAVEWESNGQPENNYKTTPPVLDSDGSFFLYSKLTVDKSRWQQGNVFSCSVMHEALHNHYTQKSLSLSPGGGGGSGGGGSGGGGSGGGGSDIQMTQSPSSVSASVGDRVTITCKSSQSLLYSTNQKNYLAWYQQKPGKAPKLLIYWASTRESGVPSRFSGSGSGTDFTLTISSLQPEDFATYYCQQYFIYPRTFGCGTKVEIKGGGGSGGGGSGGGGSGGGGSEVQLVQSGAEVKKPGSSVKVSCKASGYIFTDYNMDWVRQAPGQCLEWIGDINPDADTTSYNEKFKGRATLTVDKSTSTAYMELSSLRSEDSAVYYCARGGYSGSSYYHPMDYWGQGTLVTVKS
B2: BA006 (bispecific antibody, human IgG1, kappa)
light: B1 light
heavy 1: not shown
heavy 2: B1 heavy 2 with S690T
B3: h26D3 variant HC2 Fab (Fab, V domains shown)
VH: EVQLVQSGAEVKKPGSSVKVSCKASGYIFTDANMDWVRQAPGQGLEWIGDINPDYDTTSYNEKFKGRATLTVDKSTSTAYMELSSLRSEDTAVYYCARGGYSGSSYYHPMDYWGQGTLVTVSS
VL: DIQMTQSPSSVSASVGDRVTITCKSSQSLLYSTNQKNYLAWYQQKPGKAPKLLIYWASTRESGVPSRFSGSGSGTDFTLTISSLQPEDFATYYCQQYFIYPRTFGQGTKVEIK
notes: Single-mutant His-tagged Fab; also called Y32A
B4: h26D3-HC6/LC1 (Fab, V domains shown)
VH: B3 VH with A32Y, Y55A
VL: B3 VL with Y31A
notes: His-tagged Fab; also called double alanine mutant of h26D3 (VH Y55A, VL Y31A)
B5: h26D3-HC10/LC1 (Fab, V domains shown)
VH: B3 VH with A32Y, Y106A
VL: B3 VL with Y31A
notes: His-tagged Fab; also called double alanine mutant of h26D3 (VH Y106A, VL Y31A)
B6: h26D3 variant HC11 Fab (Fab, V domains shown)
VH: B3 VH with A32Y, Y107A
VL: B3 VL
notes: Single-mutant His-tagged Fab; also called Y107A
B7: h26D3-HC3/LC1 (Fab, V domains shown)
VH: B3 VH with A32Y, D35A
VL: B3 VL with Y31A
notes: His-tagged Fab; also called double alanine mutant of h26D3 (VH D35A, VL Y31A)
B8: h26D3 variant HC8 Fab (Fab, V domains shown)
VH: B3 VH with A32Y, Y60A
VL: B3 VL
notes: Single-mutant His-tagged Fab; also called Y60A
B9: h26D3 variant LC6 Fab (Fab, V domains shown)
VH: B3 VH with A32Y
VL: B3 VL with Y100A
notes: Single-mutant His-tagged Fab; also called Y100A
B10: h26D3-HC6/LC5 (Fab, V domains shown)
VH: B3 VH with A32Y, Y55A
VL: B3 VL with Y97A
notes: His-tagged Fab; also called double alanine mutant of h26D3 (VH Y55A, VL Y97A)
B11: h26D3 variant HC4 Fab (Fab, V domains shown)
VH: B3 VH with A32Y, D50A
VL: B3 VL
notes: Single-mutant His-tagged Fab; also called D50A
B12: h26D3 variant LC1 Fab (Fab, V domains shown)
VH: B3 VH with A32Y
VL: B3 VL with Y31A
notes: Single-mutant His-tagged Fab; also called Y31A
B13: h26D3-HC8/LC1 (Fab, V domains shown)
VH: B3 VH with A32Y, Y60A
VL: B3 VL with Y31A
notes: His-tagged Fab; also called double alanine mutant of h26D3 (VH Y60A, VL Y31A)
B14: h26D3-HC3/LC5 (Fab, V domains shown)
VH: B3 VH with A32Y, D35A
VL: B3 VL with Y97A
notes: His-tagged Fab; also called double alanine mutant of h26D3 (VH D35A, VL Y97A)
B15: h26D3 variant HC10 Fab (Fab, V domains shown)
VH: B3 VH with A32Y, Y106A
VL: B3 VL
notes: Single-mutant His-tagged Fab; also called Y106A
B16: h26D3-HC10/LC5 (Fab, V domains shown)
VH: B3 VH with A32Y, Y106A
VL: B3 VL with Y97A
notes: His-tagged Fab; also called double alanine mutant of h26D3 (VH Y106A, VL Y97A)
B17: h26D3 variant HC3 Fab (Fab, V domains shown)
VH: B3 VH with A32Y, D35A
VL: B3 VL
notes: Single-mutant His-tagged Fab; also called D35A
B18: h26D3 variant HC6 Fab (Fab, V domains shown)
VH: B3 VH with A32Y, Y55A
VL: B3 VL
notes: Single-mutant His-tagged Fab; also called Y55A
B19: h26D3 variant HC5 Fab (Fab, V domains shown)
VH: B3 VH with A32Y, D54A
VL: B3 VL
notes: Single-mutant His-tagged Fab; also called D54A
B20: h26D3-HC8/LC5 (Fab, V domains shown)
VH: B3 VH with A32Y, Y60A
VL: B3 VL with Y97A
notes: His-tagged Fab; also called double alanine mutant of h26D3 (VH Y60A, VL Y97A)

Experiments:
AβpE3-40 monomer = biological target: T2, AβpE3-40 monomer (UniProt P05067 674-711, pyroglutamate at position 3 (N-terminal residue)); assay: SPR, antibody immobilised, monomer injected, 1:1 fit
T2 construct: range 3-40 (Aβ numbering); Synthetic peptide (Bachem/Anaspec), verified monomeric by SEC; also called monomeric AβpE3-40

[1] = biological target: T3, truncated hTfR1 of SEQ ID NO:122 (human, UniProt P02786 122-760); assay: SPR, FLAG-captured TfR1, bispecific injected, 1:1 fit
T3 construct: also called human TfR1; Human TfR1
Experimental: (§1) Binding of the purified bispecific binding molecules produced in Example 47 to human and cynomolgus TfR1 was evaluated using SPR on a Biacore 8K instrument (Cytiva). […] The interaction was measured using the single cycle kinetics method with a contact time of 120 s at a flow rate of 30 μl/min followed by a dissociation time of 600 s. Regeneration of the surface between cycles was done by injecting 10 mM glycine-HCl, pH 1.7. The binding data was fitted to a 1:1 interaction model. The tested molecules were diluted in HBS-EP+ (Cytiva, #BR100669). Experiments were performed at 25° C.

[2] = biological target: T1, truncated cTfR1 of SEQ ID NO:123; assay: as above
Experimental: as §1

[3] = biological target: T3, truncated hTfR1 of SEQ ID NO:122; assay: SPR, TfR1 amine-coupled, Fab injected, 1:1 fit
Experimental: (§2) Binding of the purified Fabs to human and cynomolgus TfR1 was evaluated using either SPR (FIG. 44) or indirect ELISA (FIG. 45). For SPR, a Biacore 8K instrument (Cytiva) was used. […] The Fabs were injected over the chip using a 2-fold dilution series in four steps starting at 100 nM. The interaction was measured using the single cycle kinetics method with a contact time of 120 s at a flow rate of 30 μl/min followed by a dissociation time of 1000 s. Regeneration of the surface between cycles was done by injecting 3M MgCl₂. The binding data was fitted to a 1:1 interaction model. The Fabs were diluted in HBS-EP+ (Cytiva, #BR100669). Experiments were performed at 25° C.

[4] = biological target: T1, truncated cTfR1 of SEQ ID NO:123; assay: SPR, TfR1 amine-coupled, Fab injected, 1:1 fit
Experimental: as §2

[5] = biological target: T4, ectodomain of human TfR1 (His10-hTfR1; SEQ ID NO:110) (human, UniProt P02786 89-760); assay: indirect ELISA: plate coated with 1 µg/ml hTfR1 ectodomain, Fab in 1:3 serial dilution, anti-human IgG F(ab')2-HRP
T4 construct: also called ectodomain of hTfR1
Experimental: For the indirect ELISA, half area 96-well plates (Corning, #3690) were coated with 1 μg/ml recombinant ectodomain of hTfR1 (SEQ ID NO:110) in PBS overnight at 4° C. The coated plates were blocked using Pierce protein-free blocking solution (Thermo Fisher Scientific, #37572) for 1 h at room temperature with shaking and washed four times in PBS containing 0.1% TWEEN-20. Serial dilutions (1:3) of various expressed constructs in incubation buffer (1% BSA, 0.1% TWEEN-20 in PBS) were incubated for 1 h at room temperature. […] Following four wash steps, K-Blue® Aqueous TMB substrate (Neogen, #331177) was added to the wells for 15 min at room temperature before the reaction was stopped with 1:1 dilution of 0.5 M H₂SO₄. The optical density at 450 nm was recorded (Spark, Tecan) and background signal was subtracted before analysis.

T2 sequence (P05067 674-711): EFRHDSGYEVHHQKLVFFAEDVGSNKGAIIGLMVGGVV

Binder | Kd [3] | Kd [4] | binding result [5] | further results
B1 | – | – | – | Kd (AβpE3-40 monomer): 2.1 nM; koff (AβpE3-40 monomer): 0.00012 s⁻¹; kon (AβpE3-40 monomer): 54000 M⁻¹ s⁻¹; Kd [1]: 186 nM; koff [1]: 0.004 s⁻¹; kon [1]: 22000 M⁻¹ s⁻¹; Kd [2]: 565 nM; koff [2]: 0.011 s⁻¹; kon [2]: 19000 M⁻¹ s⁻¹
B2 | – | – | – | Kd (AβpE3-40 monomer): 2.3 nM; koff (AβpE3-40 monomer): 0.00012 s⁻¹; kon (AβpE3-40 monomer): 52000 M⁻¹ s⁻¹; Kd [1]: 189 nM; koff [1]: 0.0041 s⁻¹; kon [1]: 22000 M⁻¹ s⁻¹; Kd [2]: 552 nM; koff [2]: 0.011 s⁻¹; kon [2]: 20000 M⁻¹ s⁻¹
B3 | 8.7 nM | 12 nM | – | –
B4 | – | – | binds | –
B5 | – | – | binds | –
B6 | 388 nM | 2.7 nM | – | –
B7 | – | – | binds | –
B8 | 10 nM | 19 nM | – | –
B9 | 8.5 nM | 9.4 nM | – | –
B10 | – | – | binds | –
B11 | 5.1 nM | 8 nM | – | –
B12 | 14 nM | 70 nM | – | –
B13 | – | – | binds | –
B14 | – | – | binds | –
B15 | 9.2 nM | 4.6 nM | – | –
B16 | – | – | binds | –
B17 | 16 nM | 168 nM | – | –
B18 | 156 nM | 164 nM | – | –
B19 | 20 nM | 39 nM | – | –
B20 | – | – | binds | –
